From patent US20180057604A1 come the findings set out here.

Assay [1] addresses human TfR extracellular domain with N-terminal His tag (human) (UniProt P02786). Description: SPR, bispecific antibody. For orientation: Surface plasmon resonance follows binding to a sensor surface in real time, without labels.
Assay [2] has as its target cyno TfR extracellular domain (analogous construct to human TfR ecd) (cynomolgus monkey). Description: SPR, bispecific antibody.

Chain of cyno TfR extracellular domain (analogous construct to human TfR ecd) (cynomolgus monkey) (Q5RDH6 other isoform, or with tags, fused parts or gaps): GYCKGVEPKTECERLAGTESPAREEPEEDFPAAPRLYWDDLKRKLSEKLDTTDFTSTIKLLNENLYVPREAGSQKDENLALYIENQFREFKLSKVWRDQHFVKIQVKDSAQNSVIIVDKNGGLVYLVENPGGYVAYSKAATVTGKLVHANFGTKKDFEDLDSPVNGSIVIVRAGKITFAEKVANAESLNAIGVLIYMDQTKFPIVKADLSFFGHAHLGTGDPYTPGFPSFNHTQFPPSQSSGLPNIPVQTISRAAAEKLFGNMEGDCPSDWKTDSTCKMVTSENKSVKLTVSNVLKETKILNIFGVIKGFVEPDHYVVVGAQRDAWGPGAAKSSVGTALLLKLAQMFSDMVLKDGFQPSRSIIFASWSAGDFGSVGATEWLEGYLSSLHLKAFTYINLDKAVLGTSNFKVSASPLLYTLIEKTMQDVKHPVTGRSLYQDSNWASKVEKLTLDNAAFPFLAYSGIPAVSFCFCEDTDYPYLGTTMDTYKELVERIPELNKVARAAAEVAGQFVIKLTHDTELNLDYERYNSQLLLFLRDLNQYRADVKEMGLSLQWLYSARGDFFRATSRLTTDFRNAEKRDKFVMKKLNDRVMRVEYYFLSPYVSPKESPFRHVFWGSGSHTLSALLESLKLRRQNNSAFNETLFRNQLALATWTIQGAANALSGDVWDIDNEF
Chain of human TfR extracellular domain with N-terminal His tag (human) (P02786 89-760 G142S): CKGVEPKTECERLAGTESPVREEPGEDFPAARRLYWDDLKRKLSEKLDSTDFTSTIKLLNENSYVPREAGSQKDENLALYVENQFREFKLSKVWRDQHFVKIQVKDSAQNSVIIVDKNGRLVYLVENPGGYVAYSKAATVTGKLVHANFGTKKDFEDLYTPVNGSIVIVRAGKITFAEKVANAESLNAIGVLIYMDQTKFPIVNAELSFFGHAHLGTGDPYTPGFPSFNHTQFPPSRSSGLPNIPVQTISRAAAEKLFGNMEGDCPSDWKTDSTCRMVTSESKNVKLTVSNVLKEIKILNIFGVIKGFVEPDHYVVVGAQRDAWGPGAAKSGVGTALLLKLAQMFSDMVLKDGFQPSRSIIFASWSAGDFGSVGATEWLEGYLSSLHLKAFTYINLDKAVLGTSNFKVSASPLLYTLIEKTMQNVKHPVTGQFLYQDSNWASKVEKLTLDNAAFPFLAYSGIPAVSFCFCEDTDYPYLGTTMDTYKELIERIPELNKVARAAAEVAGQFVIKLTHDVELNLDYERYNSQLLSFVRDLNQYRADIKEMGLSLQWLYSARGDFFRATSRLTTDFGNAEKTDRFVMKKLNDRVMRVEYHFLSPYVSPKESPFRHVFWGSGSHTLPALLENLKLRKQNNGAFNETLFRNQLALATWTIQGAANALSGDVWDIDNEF

B1: anti-TfR^53A/BACE1 bispecific antibody (15G11.T53A arm) (bispecific antibody, part only; not given: anti-BACE1 arm and constant regions, V domains shown, not shown: another chain or arm of the molecule; a dimerising Fc or GST; small tags and cut ends)
VH: EVQLVQSGAEVKKPGASVKVSCKASGYTFTSYWMHWVRQAPGQRLEWIGEINPANGRTNYIEKFKSRATLTVDKSASTAYMELSSLRSEDTAVYYCARGTRAYHYWGQGTMVTVSS
VL: DIQMTQSPSSLSASVGDRVTITCRASDNLYSNLAWYQQKPGKSPKLLVYDATNLADGVPSRFSGSGSGTDYTLTISSLQPEDFATYYCQHFWGTPLTFGQGTKVEIK
In general, Kd refers to the free concentration of one partner at which half of the binding sites on the other are occupied at equilibrium, for simple one-to-one binding. Lower therefore signals tighter binding. As to B1, the Kd came to 24 nM in assay [1] and 143 nM in assay [2].
